A protein production outcome set (Wang et al. 2014)

Assay: label from the status in PepcDB records

| Sequence | protein production |
| --- | --- |
| MAKIFVVGGSGRVASELIKNLINDGNQVFASSRHPEKIIKLDNVVPVKLDLHSDVSAWSEVFKGMDVIYFVAGSRGKDLLQTDAMGAVKTMQAAENVGVKRYIMLSSLYALQPEKWSQYESLAALTDYNIAKFFADNYLVNDTKLDYTVVQPASLTEETGTGRVSFNEIISNTNPIPDVAKVLAEVIKHNNTIGKVIMMCSGDNPIETALKDI | failed |
| MAFGSFARSGGSSRFLFTAGRMAQQLTVSIGQASSPGRKPVNQDFYGALIPAEPLLITKGIALALADGISSSDISQVASESAVKSFLTDYYCTSEAWSVKSSAQRVIAATNSWLHAETRRSDYRYDRDKGYVCTLSALVIKGAAAHLFHIGDSRIYRLAGASLEQLTEDHRVRLSAEQSYLGRALGVNPQVEIDYLSVPIGSGDLFVLATDGVYEHVAHRFVVQTLRDHGDDLDAAARAIVGEAFNNGSDDNLTVQVVRIESVPGADSIDLFERVAELPLPPLLEPRAEFDGYRIIRELHGSSRSHIYLASDLATGELVVLKIPSADLRDDPEYRKRFMLEEWAARRIDSPHVLKPCVVQRPRSYLYVTFEYIEGQTLAQWMIDHPRAELETVRGLIEQIAKGLYAFHRKEMVHQDLRPANVLIDRSGTVKIIDFGSVRVAGVAELGPAGGDELLGTVQYMAPEYFAGQGGSALSDQFSLGVIAYQMLTGRLPYGAELARANQALKSRKLRYSAAADHNAKVPVWVDRALQRAVSLDPAKRYPALSEFVHDLRHPRADYLDARPQPLAARNPLLFLQLLSALLALIVVGLLARLHGSI | failed |
| MPYFLIHNKNDNVGVAIADIKTGQEVEGIYIEDMTQGPKIKAISDIPLGHKIALKDIRQSDIVIKYGRPIGSAIKDIKVGEHVHVHNIRSNRWGKWKNQ | not failed |
| MGIRHIALFRWNDTVTPDQVEQVITALSKLPAAIPELKNYAFGADLGLAAGNYDFAVVADLDGEDGFRAYQDHPDHRAALAIIAPMLADRVAVQFAL | not failed |
| MDSDADGGETVSNFSENSTDFEETEEYIVERILDRRHYMGQLQYLVKWLDYSDEDNTWESAADLDCHSLIDSIESQKSLKRGQELNNQYETKAKRLKIDP | failed |
| DRLRAFNHRLQNTPESVKVLRDWNMELDKNVTEVQGRIIGQQNIVFHNGKVPAGENADWQRHFRDQRMLTTPSDGLDRWAVIAPQRNSHELRTLLDSLYR | failed |
| MDNKVILVGGFHEIIELCEDNDIEIAGIIDNYLTNDTYWGYPIIGTDDKAKVLFETYKNVPVLITPDVPHVRYKLYHYYKSIGFQVASLISRDASISRSAIIGEGTIIQRGANLSSNIKIGQMVKVNTNANIMHDCLIGNYVTVAPNAVLLGKVEIDDKAYIGANATLLPSVKIGENVTVGAGSVVTKSVRLEHHHHHH | failed |
| MKVTVVSRSGREVLKAPLDLPDSATVADLQEAFHKRAKKFYPSRQRLTLPVTPGSKDKPVVLNSKKSLKEYCDGNNNSLTVVFKDLGAQVSYRTLFFFEYLGPLLIYPVFYYFPVYKFLGYGEDCVIHPVQTYAMYYWCFHYFKRILETFFVHRFSHATSPIGNVFRNCAYYWSFGAYIAYYVNHPLYTPVSDLQMKIGFGFGLVCQVANFYCHILLKNLRDPSGAGGYQIPRGFLFNIVTCANYTTEIYQWLGFNIATQTIAGYVFLAVAALIMTNWALGKHSRLRKIFDGKDGKPKYPRRWVILPPFL | failed |
| MERQDDPDAIQRLLVPTDLSASALRAFRHAVALARLYDAAIDVLHVIESVPYVALTPTDRLSLGATTLLERRGRRRLRAFLQEGEAAGVQVQSHIMRGAAADQISRFANQGDVDLMVLSAHGSDAEEGPLGPVGTRVLGRVTRPLFLVRASGPSLLGPPDDAA | failed |
| MTLHNEIKQLIIDCLDLEDVSIDDIETDAPLFGDGLGLDSIDALELGLAIKKKFDVKIEANSDSTKAHFYSVASLAKFIESQRP | failed |
| MIKIVTDNFLYEKEKVLALRYMYDSAKKPGITIITVTNKQKYIKNIMDNFRRCLYPKKEFIIILNDTKLQTSLYKNYFSKTKNLKLFKVDSSYSLGECLNLAISKSNYNYIAKMDDDDYYGSHYILDSMNAFNYTDASIIGKATHFIYFEDRTLLNLWCQGNENTYATSVAGATFVMKKSIFNKVKFNSLNNGEDIDLLSQCNNLGIKIYSCSKFNYVYNRHASPDNHSWKISNDLLVKRSIKLCITKSYKRIVHILEHHHHHH | failed |
| HKSMSKMKSTLKQFISMGNMLTAENNFFRQMQGLLSETTEIAAMTGGIIFLADKQEGHFTPTAFRWNGENIPVAEMPSLSITEDSFTTFQPVLEGKTIAGTLNKENIFHQLQDFLQPYLPLRFVAVPMKTHDKQLLGFLLLFNPYQLNAEREHSKIQLVNALVGSLSVSVETQQLLQEQKNLLNA | failed |
| AIAAIAEKAKGKEWTSTEKSREEDQQASNQPNSIALPGTSAKRTKEKMSVKGSKVLCPKKKAEHTDNPRPQKKIPIPPLPSKLPPVNLIHRDILRAWCQQLKLSSKGQKLDAYKRLCAFAYPNQKDFPSTAKEAKIRKSLQKKLKVEKGETSLQSSETHPPEVALPPVGEPPALENSTALLEGVNTVVVTTSAPEALLASWARISARARTPEAVESPQEASGVRWCVVHGKSLPADTDGWVHLQFHAGQAWVPEKQEGRVSALFLLPASNFPPPHLEDNMLCPKCVHRNKVLIKSLQWE | failed |
| MNQVEMTEFPVGKPQEALYGVASTPDGALWFTLAKGNAIGRLSPDGAVSRFPLPHADGQPTTITCGPDGRPWFTLSSANAIGRLAPDGALRMFELPRPASRPFGIAGGHDGCLWFAEMAGDRIGRITIDGDIEEYDLPVKGGYPSCMAAGRDGLMWFTLNQAGAVGSISATAAPRIFPLGAADAAPVGIASDAQGALWIAQAGNGAIARFDAGGRITEFPLHSRAARPHAIAADAAGNLWFTEWGANRIGRISEAGDLAGYELAAPGSEPHGIAIDPHGCVWAALETGRLVRLQASPRDLEHHHHHH | failed |
| IKATYETFSSPNGHGEGRGYLVMPQKKTIKSPTVLVIHENRGLNPYIKDVARRLAKDGFIAFAPDALYPLGGYPGNDDEGRAMQKEMDRAKIEQDFIAAAKFIKQHEHGNGKLGAVGFCFGGYVVNMLAAVMPNELDAGVPFYGTPAAEEIQKQVKGPLMLHFAGLDKRVNDTWPSYEQQLIASGAKYQALMYENVNHGFHNDSTARYAPEEAALAWERTLAFFKEHL | failed |
| MNTPQFNKIAVLVATLLISALFLTMIRQFLVTILLAGIFTGLAYPLFSRFITLTRGHRSLSASMTLVIFFMMVFLPLLAVFTVVILQAVSLSSTAIPLIREQLRDPEGFLRMLSSLPFYKDIESYSDLILEKAAEILGNLGSSVLSSFSAITWTAIYDLVLFIIFWYTMFFLLRDGHELLERIKYYLPLNESDQRRLFDRFVSVTRASLKGSLIIAVIQGTLAGLAFYVAGINQAVFWGAIMAMLSLLPLIGSPIIWVPAVIILALSGNYAQAIGLFLFCSIIVGQIDNVLRPILVGRDTSMHELFIFFGTLGGIGMFGLPGFIIGPVVAALFVTVWDIYGETFNESLIERRSGGGQAAGSDGSAP | failed |
| MSGEGDTTLKAICYKPGSLQLLDQRKLPLETIYLEIRDASDGWSAIQEMVVRGAPAIAIAAALSLAVEVFNFHGFDGSASDAVAFLENKLDYLVSSRPTAVNLADAALKLKHVIAKALATATEAKSIFKAYIEASEDMLEDDVVSNKAIGNFGLSLLRQQAKNPDKLSVLTHCNTGSLATAGYGTALGVIRALHTQGILERAYCTETRPFNQGSRLTAFELVHEKIPATLIADSAAAALMKDGRVDGVIVGADRVASNGDTANKIGTYSLALCAKHHGIPFYVAAPLTSVDLSLSSGKEIVIEERSPKELMHTHGGLGERIAAPGISVWNPAFDMTPAELIAGIITEKGVITKNGNDTFDISSFAKKITGNSSR | failed |
| MTPFPAYVPPDFTRPDLAAAPPVRVAEAPGSGVLPAGFHATSNYPEYVHLGGGRWLLASGSRMDAVLVLDGDMLRVVEPRLVRRGDRVVVGRTENGEEGIYVHTTGFDAPAGAGGDKFTFRSRGTRESPFSRSYEELYDILRHDRDHGHIVWVLGPAVAFDRDSRAAMAGLIGGGYCHALLAGNALATHDLEAALFHTGLGQDIYTQALVAGGHYHHLDVINEVLRHGSLERAIAELGIRDGIIRACLEHRVPVVLAGSIRDDGPLPDVITDSRQAQDAMRAHARRATTVIALATQLHAIAVGNMTPSYRVLDDGTVRPVYFYIVDMSEFGADKLANRGSGQARAILTNVQDFMVNLWNNLKG | failed |
| MEDQCIISHLAGIFSGVLATDFLRYAVGAGGVYLTVNLALAARLRARKIRAYEPPKGQIGREILASLRTVLIFALNGTLIVVGAEAGLVPIYREIATHGWAYLFFSTTVLIVAHDTWFYWSHRLLHYPPIFRRFHRLHHKSHNPTPFTSYSFDLGEAVVNAIYLPLILLVLPAHPVAILVFVTHMMLRNAIGHSGYEIFPANRRGKPLFDWITTVTHHDLHHAHAGYNLGLYFTWWDRLMGTEHPDYHEAFQKVAKPASWPSVRAVILAFAIFTGIAVSDARAERLSGAYASPGFGVIVRFEPCNANPGLTCGRMIWAWDAAEVPHAQSGDVIVIDLHGDGNVWSGRLKNPENGRMYRGSVVQRSPDTIVLRGCAGPFCTSQIWHSVRALRRALESAE | failed |
| MMPLKDGDFVLINYTVKVVEDGSERVIDTTLEEVAKKSGIYDPKRVYKEFPVIVGKTSLLGPLEKVLKELDVGERREVEVPPEEAFGEYKKELVVRVPVKRLRRMNIPVRVGEEVEAGGRRGKIIRVTERFAFIDFNHPLAGKKLKIEVEVVGKVDSVEDKARILAARALGLDPDKIHAEVREGGKEITLKLPPEVLGLSDLDALLAKAVSDVREYLSPRKVDVVISIEFPEEAREEAEASDTGEGGEAEGESEQAAEPGGGEERQEG | failed |
| MELIFLGTSAGVPTRTRNVTAILLNLQHPTQSGLWLFDCGEGTQHQLLHTAFNPGKLDKIFISHLHGDHLFGLPGLLCSRSMSGIIQPLTIYGPQGIREFVETALRISGSWTDYPLEIVEIGAGEILDDGLRKVTAYPLEHPLECYGYRIEEHDKPGALNAQALKAAGVPPGPLFQELKAGKTITLEDGRQINGADYLAAPVPGKALAIFGDTGPCDAALDLAKGVDVMVHEATLDITMEAKANSRGHSSTRQAATLAREAGVGKLIITHVSSRYDDKGCQHLLRECRSIFPATELANDFTVFNV | failed |
| MSSDDAWTAAALPDQSGRRVVVTGANSGLGFEATRAFARAGAHVVMACRSTERGEDARDDIVAELPGASLTVHELDLAALDSVAAFADWFTAEFDSLHVLANNAGVMAIPRSETADGFETQFGVNHLGHVALTAGLLGVLRRTSGETRVVTQSSGAHRRGRIDFEDLQHEAEYGKWEAYSQSKLANLLFAYELDRRLRAASASVTSVACHPGYAATNLQLRGPQAAGSRLRLLAMRAANALVGQSAEQGAWPLLYAATNPSIDGGEYIGPGGVLNMRGHPERQQPSARSRDEDTARRLWTVSADRTGVDFDLPDPA | failed |
| PLALFKWDLGFNLLECNQSAISMLNYTEDELKQCDFISALVPINEQKRVNKTCSDLLVNEGGEHGFNSLIKQNGNIILTEWHNSLIKDDS | failed |
| MGLNSKAEVAKSRKNAAEAEQKDRQTREKEEQYWREAEGPKSKAVKKREEEAEKKAETAAKKLEAKRLAEQEEKELEKALKKPDKKANRVTVPVPKVTEAELIRRREEDQVALAKKAEDSKKKQTRMAGEDEYEKMVLVTNTNRDDSLIEAHTVDEALARITVSDNLPVDRHPEKRLKASFKAYEEVELPRLKSEKPGLTHTQYKDLIWKMWKKSPDNPLNQAAAAAANE | failed |
